# Residue numbers refer to the chain shown, from its start. Names may count otherwise. “Also recorded” adds a separate entry of the source. Like-named read-outs stand apart in the source and are kept apart here.
# B1: RcSxph: Rana (Lithobates) catesbeianus (American bullfrog) saxiphilin, SEQ ID NO: 1 (protein)
# chain: MAPTFQTALFFTIISLSFAAPNAKQVRWCAISDLEQKKCNDLVGSCNVPDITLVCVLRSSTEDCMTAIKDGQADAMFLDSGEVYEASKDPYNLKPIIAEPYSSNRDLQKCLKERQQALAKKMIGHYIPQCDEKGNYQPQQCHGSTGHCWCVNAMGEKISGTNTPPGQTRATCERHELPKCLKERQVALGGDEKVLGRFVPQCDEKGNYEPQQFHGSTGYSWCVNAIGEEIAGTKTPPGKIPATCQKHDLVTTCHYAVAMVKKSSAFQFNQLKGKRSCHSGVSKTDGWKALVTVLVEKKLLSWDGPAKESIQRAMSKFFSVSCIPGATQTNLCKQCKGEEGKNCKNSHDEPYYGNYGAFRCLKEDMGDVAFLRSTALSDEHSEVYELLCPDNTRKPLNKYKECNLGTVPAGTVVTRKISDKTEDINNFLMEAQKRQCKLFSSAHGKDLMFDDSTLQLALLSSEVDAFLYLGVKLFHAMKALTGDAHLPSKNKVRWCTINKLEKMKCDDWSAVSGGAIACTEASCPKGCVKQILKGEADAVKLEVQYMYEALMCGLLPAVEEYHNKDDFGPCKTPGSPYTDFGTLRAVALVKKSNKDINWNNIKGKKSCHTGVGDIAGWVIPVSLIRRQNDNSDIDSFFGESCAPGSDTKSNLCKLCIGDPKNSAANTKCSLSDKEAYYGNQGAFRCLVEKGDVAFVPHTVVFENTDGKNPAVWAKNLKSEDFELLCLDGSRAPVSNYKSCKLSGIPPPAIVTREESISDVVRIVANQQSLYGRKGFEKDMFQLFSSNKGNNLLFNDNTQCLITFDRQPKDIMEDYFGKPYYTTVYGASRSAMSSELISACTIKHC
# B2: F561A: RcSxph STX binding pocket mutant F561A (protein)
# chain: B1 chain with F580A
# B3: Y558I: RcSxph STX binding pocket mutant Y558I (protein)
# chain: B1 chain with Y577I
# B4: E540A: RcSxph STX binding pocket mutant E540A (protein)
# chain: B1 chain with E559A
# B5: P727A: RcSxph STX binding pocket mutant P727A (protein)
# chain: B1 chain with P746A
# B6: D794A: RcSxph STX binding pocket mutant D794A (protein)
# chain: B1 chain with D813A
# B7: D785N: RcSxph STX binding pocket mutant D785N (protein)
# chain: B1 chain with D804N
# B8: I782A: RcSxph STX binding pocket mutant I782A (protein)
# chain: B1 chain with I801A
# B9: NpSxph: Nanorana parkeri (High Himalaya frog) saxiphilin, SEQ ID NO: 2 (protein, listed as Nanorana parkeri)
# chain: MALTFHTALYFTIVGLSFAASDARHVQWCTISHLEQKKCNDLVGSCNVPDITLACVYRSSTENCMAAIKDGQADAMFLDSGDVYKASLDHYNLKPIIAEPYSLHRELTKCLKHRQESLGGDKMVKGRYIPQCDEKGNYHPVQCHASTGYCWCVNANGEKIEGTNTTPVQTPPTCPSQVLTKCLKERQEALGGKRIAIGRYIPQCDEQGNYRPMQCHGSTGYCWCVNAIGEKIEGTNTPPGNTQPTCQSHDWDTCHYAVAVVKNSSTFQFGQLKGKRSCHSGLSKTDGWNAPVNVFVEKKLLPWDGLAKGSIERAVSKFFSASCIPGATETNLCKQCIGEEEKKCKSSHDEPYYGDHGAFRCLQEDKGDVAFLKNTALPDEHSGVYELLCPDNTRKPLNKYKECNLGKVPADAVVTRKAGDKTKDINDFLLEAQKKKCKLFGSPHGKDLMFDDSTTHLAPLPSEIDAFFFLGVKWYNAMKALTEDVKLPSKNKVRWCTINKPEMMKCKDWAAVSGGAIACTEASCPEHCVKQILKGEADAVTLDVQYMYMALMCGLLPAVEEYPNKDDFHPCQIPGSTIKDFGTKRAVALVKKSNKDIKWNNLKGKKSCHTHVGDIPGWVIPAGLISNQNDNIDIESFFGESCAPGSDTNSKLCKLCIGDPENPKASTRCSLSDKEAYYGNEGAFRCLVEKGDVAFVPHTVVFANTDGKNPAEWAKDLKSEDFEILCLDGSRAPVTNYRGCNLSGLPPRAIVTREESVSDVVRILINQQSLYGRNGFEKDMFQMFSSAKGQNLLFNDETQCLIEFDRQPKDIMEDYFGVRYYTAVYSASRSAVPSELIPACTFKHC
# Key:
# [1] = tested on: female CD-1 mice; settings: 60 nmoles/Kg RcSxph, IP, observed up to one hour
# [2] = type: binding
# [3] = Thermofluor (TF) assay of STX binding; settings: 1.1 μM Sxph, 0-20 μM STX; ΔTm at 20 μM toxin
# [4] = type: binding; settings: ITC, STX, 25° C.
# Protocol: . […] In almost all mutants, binding affinity loss correlated with a reduction in enthalpy, consistent with a loss of interactions (Table S2). […]. […] Together, these three assays (FIGS. 1E and G) provide a robust and versatile suite of options for characterizing STX:Sxph interactions.
# ITC measurements were performed at 25° C. using a MicroCal PEAQ-ITC calorimeter (Malvern Panalytical). […]. This STX stock was diluted with the SEC buffer to prepare 100 μM or 300 μM STX solutions having a final buffer composition of 135 mM NaCl, 9 mM HEPES, pH 7.4. […]. The calorimetric experiment settings were: reference power, 5 μcal/s; spacing between injections, 150 s; stir speed 750 rpm; and feedback mode, high. Data were analyzed using MicroCal PEAQ-ITC Analysis Software (Malvern Panalytical) using a single binding site model. The heat of dilution from titrations of 100 μM STX in 135 mM NaCl, 9 mM HEPES, pH 7.4 into 135 mM NaCl, 9 mM HEPES, pH 7.4 was subtracted from each experiment to correct the baseline.
# [5] = tested on: STX poisoning in female CD-1 mice; type: in vivo; settings: RcSxph:STX 2:1 molar ratio, 30 nmoles/Kg STX, 60 nmoles/Kg RcSxph, IP, observed up to one hour
# [6] = tested on: TTX poisoning in female CD-1 mice; settings: mouse, in vivo, ip
# [7] = read-out: RcSxph affinity for STX; prior radioligand assay; cited from earlier work
# [8] = type: binding; settings: for ΔΔG: ΔΔG = RT ln(Kd mutant or XSxph/Kd RcSxph), T = 298K, FP with F-STX
# [9] = tested on: Phyllobates terribilis NaV1.4 (PtNaV1.4); assay: Two-electrode voltage clamp: Sxph rescue of PtNaV1.4 from STX block in Xenopus oocytes; type: cell-based; settings: [Sxph]:[STX] ratio, 100 nM STX, PtNaV1.4 in Xenopus oocytes
# [10] = FP, 1 nM F-STX, 25° C., errors S.D.
Molecule,adverse effects of RcSxph alone [1],ΔTm (TTX-induced change of melting temperature) [2],ΔTm (STX-induced change of melting temperature) [3],Kd [4],ΔH [4],ΔS (cal mol^−1 K^−1) [4],ΔH ([4]; listed as RcSxph WT),protection of mice from STX poisoning [5],mitigation of TTX poisoning in mice [6],Kd [7],ΔG [4],"Kd [8, 10]",ΔΔG [8],Effective Rescue Ratio50 (ERR50) [9],"Kd ([8]; FP, F-STX)",ΔH ([4]; listed as NpSxph WT),STX/F-STX affinity compared with RcSxph ([8]; FP)
B1,no detectable adverse effects,0.3 °C,3.6 °C,1.2 ± 0.8 nM,-16.1 ± 0.2 kcal/mol,−12.7 ± 0.9 cal mol^−1 K^−1,-16.1 ± 0.2 kcal/mol,protects mice from STX poisoning; also recorded: sufficient to protect mice completely from STX intoxication,unable to mitigate TTX poisoning,~1 nM,–,–,–,–,–,–,–
B2,–,–,–,13.4 ± 1.4 nM,-12.7 ± 0.2 kcal/mol,−6.6 ± 0.9 cal mol^−1 K^−1,–,–,–,–,-10.8 ± 0.1 kcal/mol,16.8 ± 6 nM,0.48 kcal/mol,–,–,–,–
B3,–,–,–,1.1 ± 0.5 nM,-15.5 ± 0.3 kcal/mol,−10.5 ± 0.6 cal mol^−1 K^−1,–,–,–,–,-12.2 ± 0.3 kcal/mol,1.2 ± 0.2 nM,-1.07 kcal/mol,0.81±0.01,–,–,–
B4,–,–,complete loss of the thermal shift,–,–,–,–,–,–,–,–,15300 ± 4130 nM,4.52 kcal/mol,eliminated,15300 nM,–,–
B5,–,–,–,31.3 ± 11.6 nM,-11.5 ± 0.0 kcal/mol,−4.2 ± 0.9 cal mol^−1 K^−1,–,–,–,–,-10.3 ± 0.2 kcal/mol,56.9 ± 12.1 nM,1.21 kcal/mol,> 4,–,–,–
B6,–,–,complete loss of the thermal shift,–,–,–,–,–,–,–,–,13200 ± 6870 nM,4.43 kcal/mol,–,–,–,–
B7,–,–,DTm increases relative to wild-type,–,–,–,–,–,–,–,–,4.4 ± 0.6 nM,-0.30 kcal/mol,–,–,–,–
B8,–,–,DTm increases relative to wild-type,–,–,–,–,–,–,–,–,3 ± 0.8 nM,-0.53 kcal/mol,0.87±0.02,–,–,–
B9,–,–,3.6 °C,2.5 ± 0.1 nM,-18.7 ± 0.2 kcal/mol,−23.2 ± 0.8 cal mol^−1 K^−1,–,–,–,–,-11.8 ± 0.1 kcal/mol,0.5 ± 0.3 nM,-1.60 kcal/mol,–,–,-18.7 ± 0.2 kcal/mol,enhanced affinity
